Reference: the supplement of paper PMC12764529
± gives the half width of the 95% confidence interval.

Assay: folding stability dG unfold (combined trypsin and chymotrypsin); higher = more stable
Method in brief: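 Only designs with AlphaFold2 dimer inter-PAE above 15 were retained; each was a mini-protein under 80 residues with no cysteine, in a PA-tagged cDNA display construct. After digestion with trypsin and chymotrypsin and sequencing, K50 was inferred by Bayesian fitting of counts, and unfolding free energy was derived per protease or combined against a sequence-predicted unfolded-state K50 and a shared folded-state K50.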

Going from “SAGMIVTVLSKEVDPATGSTTTYSVSTDPETGETFLYTTTTTGDTVTTTRTVFFPGTGTTSTSTTTTSASAG [r5_150_JUSTAS]” to “SAGGSAGGSGMKTLTIEFPNVTLEEAKEAVLKLLEELGLEPIPLEKVTITYHPENPNVITVVESAGGSAGGS [r12_122_JUSTAS]”, the “folding stability dG unfold” value falls from 2.73 ± 0.046 kcal/mol to 1.35 ± 0.17 kcal/mol.

Going from “SAGGSAGGSAGKPSVTILVLTDSPEDALALAKPLLEAGYEVKLELFRLPDDRYLALITVPSAGGSAGGSAGG [r11_677_TrMRF]” to “SAGGKTLVIKMKFKTKEEAEEAIKKLLEELGLPEGAKIEVTVERDENGELTVTITITVKDPEVLKALSAGGS [r8_85_TrROS_Hall]”, the “folding stability dG unfold” value falls from 2.92 ± 0.094 kcal/mol to 2.48 ± 0.076 kcal/mol.

Compared with “SAGGLDGDMKVDEMEHDPNNGTYRYKAEAGDQWWTFEMKVVPVIPPIPISISPEDLQEGNWNISIWFSAGGS [r16_809_TrROS]”, “SAGGSAGGSEEEVEIKVVEPVDVVVLPDGTVRRTFRVEDGALLVITVHFPPDGNPVGEIEIFPSAGGSAGGS [r20_240_TrMRF]” is lower in “folding stability dG unfold” value: 2.09 ± 0.2 kcal/mol for the first, 1.68 ± 0.16 kcal/mol for the second.

Compared with “SAGGSELTLTVKVTVTVEVNGKTFTVEATLTLRFRPAPPPPKVRLERDADGNLRVTDANGKTRELRFSAGGS [r16_136_TrROS_Hall]”, “SMIPVEELVRLAAERLGLPEEELENIEEVEPFEVEPLPDNAVRVKLRIRLKNPESDEVTELDIEIVDPGGSA [r9_230_TrMRF]” is lower in “folding stability dG unfold” value: 2.61 ± 0.23 kcal/mol for the first, 1.92 ± 0.072 kcal/mol for the second.

Going from “SAGGSAGGMKVTSRETTEITVDTSTGKVTITTTTTLSNGTVVPVGTTTVAISELPEELLSEIESSAGGSAGG [r6_469_JUSTAS]” to “SAGGSAPETLTIKVKNADGSTQTITLPAGATATSIEFNEDTGELTIHLEETGETITLPADEITEITSAGGSA [r15_133_TrROS_Hall]”, the “folding stability dG unfold” value rises from 0.707 ± 0.042 kcal/mol to 1.4 ± 0.11 kcal/mol.

“SAGGSAGGSAKKKVKIKLEFDKETNTLRIEVEDEDTGEKTEIEITIKLEPPPPPPLPEELKKSAGGSAGGSA [r18_361_TrROS_Hall]” and “SAGKPIIVKVSVINEDGEEEEIAEFPIPPDLLKGSIEVGDGFIIAPDGEGPTFTAIIGDKPVKIEIEGSAGG [r19_408_TrMRF]” are within error of each other in “folding stability dG unfold” value: 1.73 ± 0.61 kcal/mol for the first, 1.27 ± 0.13 kcal/mol for the second.

Going from “SAGGSAGGSAGGSPSPLGKTRPALPASPVLKVPVTLPDDSLLTVYYDPLTGSLVVESYSSAGGSAGGSAGGS [r4_305_TrMRF]” to “SAGGSAGGSAGGFYDPNGKWRIKIKPEVFEFPNYRFIKMKIEVDGRPIMEMPMLIPPNDSAGGSAGGSAGGS [r10_628_TrROS]”, the “folding stability dG unfold” value rises from 0.467 ± 0.07 kcal/mol to 2.73 ± 0.34 kcal/mol.

First: SAGGSAGGSMTWTETVITLKGNGSETTTYKAKVTEDPSSDTVLVTLPDGTPLTIPKSQVTINSSAGGSAGGS [r12_256_JUSTAS]
Second: SAGGSAGGSEKKFKIVSVKVEYNKETGTVTIEVEIYDEKTGKLVLKATITINKNGELKITLEPSAGGSAGGS [r12_115_TrROS_Hall]
The “folding stability dG unfold” value of the first is lower: 0.399 ± 0.096 kcal/mol for the first, > 6 kcal/mol for the second.

Going from “SAGMTTTLTKTEKFPDGTTVTYTTVTAPDGTPLTATATYDPNNPNKATTTTTDPATGTTTTTTTTITGGSAG [r5_345_JUSTAS]” to “SAMKKVEIEIEVVEVDGELYILIKIKAETPEEVKEAAEKLLKELGLPPEAEVEVVEKDGEVYILIRLKPSAG [r14_804_TrROS_Hall]”, the “folding stability dG unfold” value rises from 0.852 ± 0.12 kcal/mol to 4.17 ± 0.13 kcal/mol.

Going from “SMKILIVTKEKAEELAEAIKKKFPNIEIEVFDTPEEAEEAAKKGDIVIVIGSEEEAKELAKKLKVKVIKISA [r9_380_TrROS_Hall]” to “SAGGSVTKEELEKLNVEEVAALLPEDYTVTVVPGTGVVVISAPDRTLTITHDPATGKVTLTSEVEVSAGGSA [r2_470_JUSTAS]”, the “folding stability dG unfold” value falls from 2.86 ± 0.45 kcal/mol to 0.797 ± 0.15 kcal/mol.

Going from “SAGGSAGGSSSVVSTLEETPDSVVEKVETPDPIIVERVPLPDGTVEVRVFKPDGTPISISTLGSAGGSAGGS [r12_1061_JUSTAS]” to “SAGGSAGSMPVEVTVTITVKDKNGTVLGTFPIKITVTSEEELEAKIKELKEKLKKEGYIVEKVDVVSAGGSA [r15_1054_JUSTAS]”, the “folding stability dG unfold” value rises from 0.507 ± 0.12 kcal/mol to 3.24 ± 0.091 kcal/mol.

Going from “SAGGSAKIRYIKVLLRFPPKGEKKIIVIPIENIPEDRPEELIELAKAIAEAFVEGTGAEVEGIEISSAGGSA [r15_1013_TrMRF]” to “SAGEEKVEELARELAEELGVTITEVTVTEEGDTVTITVVNEETGERITITVTRNEDGEITVTITVEKLPSAG [r5_888_TrROS_Hall]”, the “folding stability dG unfold” value falls from 4.05 ± 0.13 kcal/mol to 2.62 ± 0.11 kcal/mol.

First: SAGGSAGGSAGGSPAVRIPLEVLKELIPPDLVVEVNPVPVPEEGGVLVPVRVVSPEEAASAGGSAGGSAGGS [r4_119_TrMRF]
Second: SAGGSAGGSAGGVKPGQKVKVEIDGKTYEATVDEKNGTIYVTLPNGKKYKAKIVKVEKVSAGGSAGGSAGGS [r10_1185_TrROS_Hall]
The “folding stability dG unfold” value of the first is lower: 0.728 ± 0.18 kcal/mol for the first, 2.38 ± 0.12 kcal/mol for the second.

First: SAGMKIETIPEVDYVVIEIDAKSLEEAIETLKYLTEKLGLKKVIAVADPTSNKVIAIAEVGNPEALEKLSAG [r5_598_TrMRF]
Second: SADKILVRVVFNLGGPPVELTLEADSPEELVEATIAVIKPLFPDADIREVKLFVYNPNTDEVEEFTLTASAG [r14_54_TrMRF]
The “folding stability dG unfold” value of the first is lower: 1.96 ± 0.1 kcal/mol for the first, 3.06 ± 0.059 kcal/mol for the second.

Going from “SAGGSAGGSDETLTVTRGRTETVTVRRVERRPPAAAPPLKVTLSAVLDADGRLVSVSASVELLSAGGSAGGS [r12_727_TrROS_Hall]” to “SAGSNTIWYPFPLKEIKEAISSGQSMEEIADELSERHGEEVPIEYPNMKIRIYVPEPGPLYVRIEMTPDSAG [r5_343_TrROS]”, the “folding stability dG unfold” value falls from 1.9 ± 0.15 kcal/mol to 0.734 ± 0.14 kcal/mol.

For “SAGGSMTLTGESEEEAKALVEALKEELKKKYPEKPNLEIPVKVIIKDPKTGKETEKVFKVKIPIPKSAGGSA [r2_393_JUSTAS]”, the “folding stability dG unfold” value was 1.14 ± 0.062 kcal/mol.
